Measurements reported in patent publication US20200017549A1, “NOVEL a4B7 PEPTIDE ANTAGONISTS” (Protagonist Therapeutics, Inc., priority 2013, published 2020).
Bridge positions count the residues as written; N and C are the ends. Square brackets hold non-standard residues; d marks the D form. Ends that are not written are not given here. NMeR = CN[C@@H](CCCNC(=N)N)C(=O)O

Biological target: T1, α4β7 (RPMI 8866 cells) (Homo sapiens, UniProt P13612+P26010)
T1 construct: host or cells: RPMI 8866 cells
T1 sequence (P13612 34-1032): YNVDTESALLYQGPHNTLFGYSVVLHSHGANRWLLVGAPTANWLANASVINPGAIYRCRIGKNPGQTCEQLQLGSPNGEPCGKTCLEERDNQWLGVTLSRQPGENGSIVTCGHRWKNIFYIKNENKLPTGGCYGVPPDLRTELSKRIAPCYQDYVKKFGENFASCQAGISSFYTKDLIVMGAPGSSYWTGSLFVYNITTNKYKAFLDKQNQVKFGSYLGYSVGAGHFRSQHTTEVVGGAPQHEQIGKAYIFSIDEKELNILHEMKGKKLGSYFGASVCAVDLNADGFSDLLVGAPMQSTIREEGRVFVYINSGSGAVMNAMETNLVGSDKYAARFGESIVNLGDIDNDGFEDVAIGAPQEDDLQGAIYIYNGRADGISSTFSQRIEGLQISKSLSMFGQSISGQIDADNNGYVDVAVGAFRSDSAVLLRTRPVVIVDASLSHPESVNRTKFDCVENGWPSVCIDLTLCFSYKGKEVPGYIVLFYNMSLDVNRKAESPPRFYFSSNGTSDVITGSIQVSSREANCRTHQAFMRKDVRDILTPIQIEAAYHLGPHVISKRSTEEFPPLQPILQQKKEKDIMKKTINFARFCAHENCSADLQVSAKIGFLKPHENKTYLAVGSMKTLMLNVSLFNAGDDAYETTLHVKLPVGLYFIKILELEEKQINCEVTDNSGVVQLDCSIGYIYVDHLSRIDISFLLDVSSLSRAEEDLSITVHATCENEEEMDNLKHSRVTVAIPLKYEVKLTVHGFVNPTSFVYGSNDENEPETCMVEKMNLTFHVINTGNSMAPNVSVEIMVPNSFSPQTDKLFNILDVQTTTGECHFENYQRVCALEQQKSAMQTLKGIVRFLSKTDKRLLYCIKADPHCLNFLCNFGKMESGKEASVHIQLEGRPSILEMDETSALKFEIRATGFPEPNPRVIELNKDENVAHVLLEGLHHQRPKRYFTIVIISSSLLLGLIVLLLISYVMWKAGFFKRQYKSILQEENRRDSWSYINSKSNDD
T1 sequence (P26010 20-798): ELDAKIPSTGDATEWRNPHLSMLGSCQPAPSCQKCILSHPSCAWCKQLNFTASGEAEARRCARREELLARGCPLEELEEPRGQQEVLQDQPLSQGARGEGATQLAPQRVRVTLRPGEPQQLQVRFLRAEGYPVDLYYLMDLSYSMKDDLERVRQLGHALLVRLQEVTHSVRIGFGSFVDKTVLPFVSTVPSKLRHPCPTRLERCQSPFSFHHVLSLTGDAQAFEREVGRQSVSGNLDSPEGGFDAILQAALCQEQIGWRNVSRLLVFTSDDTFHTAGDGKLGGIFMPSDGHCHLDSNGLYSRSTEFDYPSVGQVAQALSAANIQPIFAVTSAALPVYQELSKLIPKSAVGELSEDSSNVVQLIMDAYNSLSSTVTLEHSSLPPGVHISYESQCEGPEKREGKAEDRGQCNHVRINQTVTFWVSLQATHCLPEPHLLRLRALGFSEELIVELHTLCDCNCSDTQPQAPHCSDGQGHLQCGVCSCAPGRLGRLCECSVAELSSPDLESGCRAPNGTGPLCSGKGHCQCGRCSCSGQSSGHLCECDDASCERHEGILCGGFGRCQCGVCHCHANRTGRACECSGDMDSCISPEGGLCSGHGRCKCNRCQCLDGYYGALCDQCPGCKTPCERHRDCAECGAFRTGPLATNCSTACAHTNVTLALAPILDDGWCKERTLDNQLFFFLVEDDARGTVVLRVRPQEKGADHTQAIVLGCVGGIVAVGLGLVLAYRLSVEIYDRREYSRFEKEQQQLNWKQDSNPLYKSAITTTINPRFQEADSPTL
Experiment: α4β7-MAdCAM Cell Adhesion Assay
Type: cell-based
Settings: N-Me-Arg substituted, as compared to SEQ ID NO:39
Method: α4β7-MAdCAM Cell Adhesion Assay
RPMI 8866 cells (Sigma #95041316) are cultured in RPMI 1640 HEPES medium (Invitrogen #22400-089) supplemented with 10% serum (Fetal Bovine Serum, Invitrogen # 16140-071), 1 mM sodium pyruvate (Invitrogen #11360-070), 2 mM L-glutamine (Invitrogen # 25030-081) and Penicillin-Streptomycin (Invitrogen # 15140-122) at 100 units of penicillin and 100 μg of streptomycin per ml. The cells are washed two times in DMEM medium (ATCC #30-2002) supplemented with 0.1% BSA, 10 mM HEPES pH 7 and 1 mM MnCl2. The cells are re-suspended in supplemented DMEM medium at a density of 4×10^6 cells/ml.
A Nunc MaxiSorp plate was coated with rh MAdCAM-1/Fc Chimera (R&D #6065-MC) at 200 ng per well in 50 ul per well in 1×PBS and incubated at 4° C. overnight. The solution was then removed by shaking, blocked with 250 ul per well PBS containing 1% BSA, and incubated at 37° C. for 1 hr. The solution was removed by shaking. peptides are diluted by serial dilution in a final volume of 50 ul per well (2× concentration). To each well, 50 ul of cells (200,000 cells) are added and the plate is incubated at 37° C., 5% CO2 for 30-45 min to allow cell adhesion. […] The plate is shaken for 5 min and the absorbance at 570 nm is measured. To calculate the dose response, the absorbance value of control wells not containing cells is subtracted from each test well.

SEQ ID NO: 48: integrin antagonist peptide substituted with N-Me-Arg (C[NMeR]SDTLCK; disulfide 1-7)
potency for α4β7 in cell adhesion assay: increased potency
